Measurements as given in publication PMC6698960, “Isolation and Characterization of Nanobodies against a Zinc-Transporting P-Type ATPase” (Antibodies, 2018).
Residue numbers refer to the chain shown, from its start.

B1: Nb11 (VHH)
VHH: QVQLVETGGGLVQAGDSLRLACAHSGRTFSTYAMGWFRQAPGKEREFVAAISGSGGTTIYADSVTGRFTISRDNTKNTVYLQMNSLKPEDTAVYSCAASQYYMGSRSTENYNVWGQGTQVTVSS
B2: Nb6 (VHH)
VHH: QLQLVETGGGLVQAGGSLRLSCAASGLIFSSYNMGWFRQAPGKEREFVGAIWSSSFTYLLDSVKGRFTISRDNAKNTVYLQMNSLKPEDTAVYYCAASRRLLTQGSAVSTTSYEYWGQGTQVTVSS
B3: Nb10 (VHH)
VHH: QVQLVESGGGLVQTGGSLRLSCAASGLTFSSYNMGWFRQAPGKEREFLGAIWSSGFTYYLDSVKGRFTISRDNAKNTVYLQMDSLKPEDTAVYYCAAARRLLTQAAAVMFNSYDYWGQGTRVTVSS
B4: Nb7 (VHH)
VHH: QVQLVESGGGLVQAGGSLRLSCAASGLTFSAYNMGWFRQAPGKEREFVGAIWSSSFTYYLDSLKGRFTISRDNTKNTVYLQMNSLKPEDTAVYYCAAARRLLTQAGAVLTTSYEYWGQGTQVTVSS
B5: Nb1 (VHH)
VHH: QVQLVESGGGLVQAGDSLRLSCAASGRTFSNYAMGWFRQAPGKEREFVAAISGGGGTTYYSDSVKGRFTISRDNAKSTVYLQMNSLKPEDTAVYFCASSTYYMPSRAADTYTYWGQGTQVTVSS
notes: also called nanobody 1; source: E. coli BL21, purified (Ni2+ beads, SEC); not shown: His6, C-terminal, kept
B6: Nb2 (VHH)
VHH: B5 VHH with V2L, S7T
notes: also called nanobody 2; source: E. coli BL21, purified (Ni2+ beads, SEC); not shown: His6, C-terminal, kept
B7: Nb9 (VHH)
VHH: QLQLVESGGGVVQAGGSLRLSCAASGRTFSSYGMGWFRQAPGKEREFASAISGSGGSTYYADSVKGRFTISRDNAKNTVYLQMNSLKPEDTAVYYCARSRYYSGGRSLLEYDYWGQGTQVTVSS
notes: also called nanobody 9; source: E. coli BL21, purified (Ni2+ beads, SEC); not shown: His6, C-terminal, kept
B8: Nb4 (VHH)
VHH: QVQLVESGGGVVQTGGSLRLSCAASGRTFSTYGMGWFRQAPGKEREFVAAISGSGGMTYYGDPVKGRFTISRDNAVNTVYLQMNNLKPEDTAVYICAVGAYYSGGSRAQNYEYWGQGTQVTVSS
notes: also called nanobody 4; source: E. coli BL21, purified (Ni2+ beads, SEC); not shown: His6, C-terminal, kept
B9: Nb5 (VHH)
VHH: B8 VHH with P88A, I95V
notes: also called nanobody 5; source: E. coli BL21, purified (Ni2+ beads, SEC); not shown: His6, C-terminal, kept
B10: Nb8 (VHH)
VHH: QVQLVETGGGLVQAGGSLRLSCAASGRAFSSYGMGWFRQAPGKEREFVAAVSGSGATTIYADSVKGRFTISRDNAVNTVYLHMNDLKPDDTAVYYCAVGKYYSGSRQSHNYDYWGQGTQVTVSS
notes: also called nanobody 8; source: E. coli BL21, purified (Ni2+ beads, SEC); not shown: His6, C-terminal, kept

Molecular target: T1, zinc-transporting PIB-ATPase ZntA from Shigella sonnei (Shigella sonnei (UniProt Q3YW59, strain …, UniProt Q3YW59))
T1 sequence (Q3YW59 whole entry, one chain of several): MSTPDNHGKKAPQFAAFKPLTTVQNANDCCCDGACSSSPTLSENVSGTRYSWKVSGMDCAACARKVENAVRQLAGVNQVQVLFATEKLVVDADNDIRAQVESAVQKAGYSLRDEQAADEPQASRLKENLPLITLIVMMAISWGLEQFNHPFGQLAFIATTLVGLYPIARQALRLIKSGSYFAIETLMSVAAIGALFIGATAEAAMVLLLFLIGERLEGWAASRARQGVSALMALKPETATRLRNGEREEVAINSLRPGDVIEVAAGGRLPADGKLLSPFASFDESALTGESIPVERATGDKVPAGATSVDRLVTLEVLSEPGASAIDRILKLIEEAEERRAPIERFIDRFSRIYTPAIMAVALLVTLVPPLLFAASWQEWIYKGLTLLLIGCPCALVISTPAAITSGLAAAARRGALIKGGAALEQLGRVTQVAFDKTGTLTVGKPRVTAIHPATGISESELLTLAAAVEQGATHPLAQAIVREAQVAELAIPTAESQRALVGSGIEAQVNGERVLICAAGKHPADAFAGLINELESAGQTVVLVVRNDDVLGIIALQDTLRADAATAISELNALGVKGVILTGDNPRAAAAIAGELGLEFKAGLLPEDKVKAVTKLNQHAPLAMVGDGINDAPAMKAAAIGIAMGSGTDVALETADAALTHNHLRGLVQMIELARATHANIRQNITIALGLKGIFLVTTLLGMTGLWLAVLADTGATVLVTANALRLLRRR
Assay: not given
Conditions: not given

Binder | binding result
B1 | binds
B2 | binds
B3 | binds
B4 | binds

Molecular target: T1, zinc-transporting PIB-ATPase ZntA from …
Assay: SEC
Conditions: both partners purified

Binder | binding result
B5 | binds
B6 | binds
B7 | binds
B8 | binds
B9 | binds
B10 | binds
